Target: T1, mouse ADAMTS5 (Mus musculus, UniProt Q9R001)
T1 sequence (Q9R001 262-930): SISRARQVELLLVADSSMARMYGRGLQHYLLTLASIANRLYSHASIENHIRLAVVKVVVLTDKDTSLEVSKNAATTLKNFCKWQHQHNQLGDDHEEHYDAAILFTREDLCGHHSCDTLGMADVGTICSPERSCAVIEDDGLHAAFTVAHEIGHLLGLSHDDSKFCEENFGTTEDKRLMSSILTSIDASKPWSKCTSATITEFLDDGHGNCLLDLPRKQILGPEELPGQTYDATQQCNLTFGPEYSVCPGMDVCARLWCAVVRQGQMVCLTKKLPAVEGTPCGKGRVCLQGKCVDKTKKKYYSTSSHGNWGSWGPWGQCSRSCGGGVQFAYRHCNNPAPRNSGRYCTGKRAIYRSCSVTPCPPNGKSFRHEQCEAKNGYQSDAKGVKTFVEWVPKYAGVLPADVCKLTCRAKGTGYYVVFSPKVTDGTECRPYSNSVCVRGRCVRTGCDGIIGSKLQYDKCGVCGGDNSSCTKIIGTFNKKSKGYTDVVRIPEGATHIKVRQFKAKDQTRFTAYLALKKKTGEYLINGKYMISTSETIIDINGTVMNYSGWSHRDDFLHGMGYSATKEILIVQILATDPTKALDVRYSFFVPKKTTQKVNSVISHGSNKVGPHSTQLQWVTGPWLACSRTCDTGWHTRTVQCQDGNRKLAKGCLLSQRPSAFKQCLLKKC
Assay: SPR-based off-rate analysis, mouse ADAMTS5
Assay type: binding
Conditions: Experiment 2
Protocol: Species cross-reactivity was initially evaluated via SPR-based off-rate analysis on a Biacore T100 instrument. Polypeptides were tested for binding to human, cynomolgus monkey (“cyno”), guinea pig, mouse, and bovine ADAMTS5. To this end, recombinant ADAMTS5 was immobilized onto a CM5 chip via amine coupling using EDC and NHS. Purified ISVD 02F03 was injected for 2 minutes at a concentration of 100 nM and allowed to dissociate for 15 min at a flow rate of 45 μl/min. Off-rate for each individual ADAMTS5 was determined by fitting a 1:1 interaction model (Langmuir model) onto the individual dissociation curves using the BIA Evaluation software. As a reference, off-rates on human ADAMTS5 were determined in each experiment.

B1: ISVD 02F03: immunoglobulin single variable domain which specifically binds ADAMTS5 (protein)
VHH: EVQLVESGGGVVQPGGSLRLSCAASGRTVSSYAMGWFRQAPGKEREFVAGISRSAERTYYVDSLKGRFTISRDNSKNTVYLQMNSLRPEDTALYYCAADLDPNRIFSREEYAYWGQGTLVTVSS
modifications: Description of Artificial Sequence: Synthetic anti-ADAMTS5 immunoglobulin single variable domain (ISVD)
B1 was tested, and the “SPR based off-rate, kd, Mouse ADAMTS-5” value was 0.00029 s⁻¹.

— US20240181006A1, “POLYPEPTIDES BINDING ADAMTS5, MMP13 AND AGGRECAN” (Merck Patent GmbH, priority 2017, published 2024)
